What all share (format): biochemical
Assay [1] is described as follows: Product formation by washed and induced cells expressing triazine hydrolase, substrate atratone. The settings on record: 250 μM substrate, 20 ul washed and induced cells in 100 μl NH3Acetate pH 6.8, 22° C.
Assay [2] in a line: Product formation by washed and induced cells expressing triazine hydrolase, substrate aminopropazine. Conditions: 250 μM substrate, 20 ul washed and induced cells OD600 = 3 in 100 μl 10 mM NH3Acetate pH 6.8, 37° C.
Assay [3] is described as follows: Product formation by washed and induced cells expressing triazine hydrolase, substrate aminoatrazine. Conditions: 250 μM substrate, 20 ul washed and induced cells in 100 μl NH3Acetate pH 6.8, 22° C.
Assay [4] is described as follows: Product formation by washed and induced cells expressing triazine hydrolase, substrate atrazine. The settings on record: 250 μM substrate, 20 ul washed and induced cells in 100 μl NH3Acetate pH 6.8, 22° C.
Assay [5] is described as follows: Product formation by washed and induced cells expressing triazine hydrolase, substrate prometryn. The settings on record: 250 μM substrate, 20 ul washed and induced cells OD600 = 3 in 100 μl 10 mM NH3Acetate pH 6.8, 37° C.
The nature of assay [6]: Product formation by washed and induced cells expressing triazine hydrolase, substrate prometon. The settings on record: 250 μM substrate, 20 ul washed and induced cells OD600 = 3 in 100 μl 10 mM NH3Acetate pH 6.8, 37° C.
Assay [7] in a line: Product formation by washed and induced cells expressing triazine hydrolase, substrate ametryn. Conditions: 250 μM substrate, 20 ul washed and induced cells in 100 μl NH3Acetate pH 6.8, 22° C.
The nature of assay [8]: Product formation by washed and induced cells expressing triazine hydrolase, substrate N-methylatrazine. Conditions: 250 μM substrate, 20 ul washed and induced cells in 100 μl NH3Acetate pH 6.8, 22° C.
The nature of assay [9]: Product formation by washed and induced cells expressing triazine hydrolase, substrate propazine. Conditions: 250 μM substrate, 20 ul washed and induced cells OD600 = 3 in 100 μl 10 mM NH3Acetate pH 6.8, 37° C.
Assay [10] is described as follows: Product formation by washed and induced cells expressing triazine hydrolase, substrate N-methylpropazine. Conditions: 250 μM substrate, 20 ul washed and induced cells OD600 = 3 in 100 μl 10 mM NH3Acetate pH 6.8, 37° C.
A short description of assay [11]: High throughput mass spectrometry screen of triazine hydrolase library against about 15 triazine derivatives. Conditions: for Substrate Activity: ametryn: preferred substrates; for Substrate Activity: nme-atrazine: column lists substrates on which the library member shows preferred triazine hydrolase activity.
Where [12] appears, read: Table 5, the value is the triazine substrate the library member (atzA-based variant) is active on, preferred members, not exclusive.
Setting [13] is: substrate propazine, column indicates preferred embodiments, not exclusive.
[14] abbreviates: substrate(s) on which the triazine hydrolase library member shows activity, column indicates preferred embodiments and is not exclusive.

Residue numbers refer to the chain shown, from its start.

B1: atzA: naturally occurring atrazine chlorohydrolase (atzA), GenBank #U55933 (protein, UniProt P72156 1-474, looked up)
Atrazine chlorohydrolase: MQTLSIQHGTLVTMDQYRRVLGDSWVHVQDGRIVALGVHAESVPPPADRVIDARGKVVLPGFINAHTHVNQILLRGGPSHGRQFYDWLFNVVYPGQKAMRPEDVAVAVRLYCAEAVRSGITTINENADSAIYPGNIEAAMAVYGEVGVRVVYARMFFDRMDGRIQGYVDALKARSPQVELCSIMEETAVAKDRITALSDQYHGTAGGRISVWPAPATTTAVTVEGMRWAQAFARDRAVMWTLHMAESDHDERIHGMSPAEYMECYGLLDERLQVAHCVYFDRKDVRLLHRHNVKVASQVVSNAYLGSGVAPVPEMVERGMAVGIGTDNGNSNDSVNMIGDMKFMAHIHRAVHRDADVLTPEKILEMATIDGARSLGMDHEIGSIETGKRADLILLDLRHPQTTPHHHLAATIVFQAYGNEVDTVLIDGNVVMENRRLSFLPPERELAFLEEAQSRATAILQRANMVANPAWRSL
As for B1, the “Product formation, substrate Atratone” value in [1] was determined as 0 nM/h. The “Product formation, substrate Aminopropazine” value in assay [2] is 0 nM/h. Besides, the “Product formation, substrate Aminoatrazine” value in assay [3] is given as 0 nM/h. Moreover, the “Product formation, substrate Atrazine” value in assay [4] is recorded as 58899 nM/h. In assay [5], the “Product formation, substrate Prometryn” value was found to be 0 nM/h. The “Product formation, substrate Prometon” value in assay [6] came to 0 nM/h. Besides, the “Product formation, substrate Ametryn” value in assay [7] came out at 0 nM/h. For the same molecule, the “Product formation, substrate NMeAtrazine” value in [8] is listed as 0 nM/h. Moreover, the “Product formation, substrate Propazine” value in [9] is 26 nM/h. Besides, the “Product formation, substrate NMePropazine” value in assay [10] stood at 0 nM/h.

B2: 113 (protein)
chain: MQTLSIQHGTLVTMDQYRRVLGDSWVHVQDGRIVALGVHAESVPPPADRVIDARGKVVLPGFINAHTHVNQILLRGGPSHGRQFYDWLFNVLYPGQKAMRPEVAVAVRLYCAEAVRSGITTINEEADSAIYPGNIEAAMAVYGEVGVRVVYARMFFDRMDGRIQGYVDALKARSPQVELCSIMEETAVAKDRITALSDQYHGTAGGRISVWPAPATTTTVTVEGMRWAQAFARDRAVMWTLHMAESDHDERIIGGSPAEYMECYGLLDERLQVAHCVYFDRKDVRLLHRHNVKVASQVVSNAYLGSGVAPVPEMVERGMAVGIGTDNDNSCDSVNMIGDMKFMAHIHRAVHRDADVLTPEKILEMATIDGARSLGMDHEIGSIETGKRADLILLDLRHPQTTPHHHLAATIVFQAYGNEVDTVLIDGNVVMENRRLSFLPPERELAFLEEAQSRATAILQRANMVANPAWRSL
For B2, in assay [11] (setting [12]), the “Substrate Activity” value is “atratone”.

B3: 57 (protein)
chain: B2 chain with E125D, I253L
Turning to B3, the “Substrate Activity” value in assay [11] (setting [12]) is listed as “atratone”.

B4: 248 (protein)
chain: B2 chain with L92V, G255W, D328N, C331S
Consider B4, for which the “Substrate Activity” value in assay [11] (setting [13]) is “propazine”.

B5: 370 (protein)
chain: B2 chain with F84L, C331S
As for B5, the “Substrate Activity: ametryn” value in assay [11] (not exclusive) is “ametryn”.

B6: 314 (protein)
chain: B2 chain with F84L, E125D, I253L, C331S
On to B6, for which the “Substrate Activity: ametryn” value in assay [11] (not exclusive) is on record as “ametryn”.

B7: 512 (protein)
chain: B2 chain with F84L, L92V, I253L, G255W, D328N, C331S
Take B7: the “Substrate Activity” value in assay [11] (setting [14]) is reported as “propazine”.

B8: 61 (protein)
chain: B2 chain with E125D, I253L, G255W
As for B8, in [11] (setting [12]), the “Substrate Activity” value is on record as “atratone”.

B9: 382 (protein)
chain: B2 chain with F84L, I253L, G255W, C331S
Turning to B9, in assay [11] (not exclusive), the “Substrate Activity: ametryn” value is on record as “ametryn”.

B10: 345 (protein)
chain: B2 chain with F84L, T217I, I253L
On to B10, for which the “Substrate Activity: nme-atrazine” value in [11] (not exclusive) is “nme-atrazine”.

B11: 49 (protein)
chain: B2 chain with E125D
For B11, the “Substrate Activity” value in assay [11] (setting [12]) was “atratone”.

B12: 482 (protein)
chain: B2 chain with F84L, L92V, T219P, C331S
B12: the “Substrate Activity” value in assay [11] (setting [14]) is recorded as “prometryn”.

B13: 508 (protein)
chain: B2 chain with F84L, L92V, I253L, D328N, C331S
On to B13, for which the “Substrate Activity” value in assay [11] (setting [14]) was “propazine”.

B14: 117 (protein)
chain: B2 chain with G255W
Take B14: in [11] (setting [12]), the “Substrate Activity” value is reported as “atratone”.

B15: 466 (protein)
chain: B2 chain with F84L, L92V, T217I, C331S
For the molecule B15, the “Substrate Activity” value in assay [11] (setting [14]) is “prometryn”.

B16: 383 (protein)
chain: B2 chain with F84L, I253L, G255W, D328N
B16: in assay [11] (not exclusive), the “Substrate Activity: ametryn” value is “ametryn”.

B17: 349 (protein)
chain: B2 chain with F84L, T217I, I253L, G255W
Turning to B17, in assay [11] (not exclusive), the “Substrate Activity: nme-atrazine” value is reported as “nme-atrazine”.

B18: 128 (protein)
chain: B2 chain with I253L, G255W, D328N, C331S
As for B18, in assay [11] (setting [12]), the “Substrate Activity” value is “atrazine”.

B19: 53 (protein)
chain: B2 chain with E125D, G255W
Turning to B19, in assay [11] (setting [12]), the “Substrate Activity” value is “atratone”.

B20: 502 (protein)
chain: B2 chain with F84L, L92V, G255W, C331S
As for B20, the “Substrate Activity” value in assay [11] (setting [14]) is on record as “prometryn”.

B21: 244 (protein)
chain: B2 chain with L92V, D328N, C331S
Regarding B21, the “Substrate Activity” value in assay [11] (setting [13]) was “propazine”.

B22: 498 (protein)
chain: B2 chain with F84L, L92V, C331S
As to B22, in [11] (setting [14]), the “Substrate Activity” value is “prometryn”.

B23: 318 (protein)
chain: B2 chain with F84L, E125D, I253L, G255W, C331S
On to B23, for which, in assay [11] (not exclusive), the “Substrate Activity: ametryn” value was “ametryn”.

B24: 504 (protein)
chain: B2 chain with F84L, L92V, G255W, D328N, C331S
For B24, in assay [11] (setting [14]), the “Substrate Activity” value is given as “propazine”.

B25: 124 (protein)
chain: B2 chain with I253L, D328N, C331S
As for B25, in assay [11] (setting [12]), the “Substrate Activity” value is “atrazine”.
